Reference: PMC10849960
Ends that are not written are not given here.

How the values were obtained:
[1] = target: RFdiffusion de novo PTH binder (picomolar); assay: affinity purification with mass spectrometry; binder-conjugated magnetic beads capture the peptide from buffer; recovery by LC-MS/MS (tryptic N-terminal peptide for PTH, intact peptide for GCG); triplicates
[2] = target: RFdiffusion de novo PTH binder (picomolar); assay: affinity purification with mass spectrometry; binder-conjugated beads capture PTH from human plasma supplemented with PTH; recovery by LC-MS/MS of the N-terminal tryptic peptide; triplicates

percent recovery [1]: 53%
percent recovery [2]: 43%
Binder: SVSEIQLMHNLGKHLNSMERVEWLRKKLQDVHNF (also: fluorescently labelled, label and position not given here) [parathyroid hormone (PTH)]
